Data taken from article PMC5679652, “Broadening the functionality of a J-protein/Hsp70 molecular chaperone system” (PLoS Genetics, 2017).
Where no end group is shown, it is not given here. Flc = fluorescein label

Key:
[1] = biological target: T1, Ssa1 (wild type, His-tagged) (S. cerevisiae, UniProt P10591 1-642)
T1 construct: Ssa1, cytosolic Hsp70 of Saccharomyces cerevisiae; Ssa1(1-532) is said to lack 110 residues, so the whole protein has 642 residues; Assayed with 1 mM ADP (anisotropy) or as a preformed 32P-ATP complex (ATPase); also called WT Ssa1; His-Ssa
T1 sequence (P10591 whole entry): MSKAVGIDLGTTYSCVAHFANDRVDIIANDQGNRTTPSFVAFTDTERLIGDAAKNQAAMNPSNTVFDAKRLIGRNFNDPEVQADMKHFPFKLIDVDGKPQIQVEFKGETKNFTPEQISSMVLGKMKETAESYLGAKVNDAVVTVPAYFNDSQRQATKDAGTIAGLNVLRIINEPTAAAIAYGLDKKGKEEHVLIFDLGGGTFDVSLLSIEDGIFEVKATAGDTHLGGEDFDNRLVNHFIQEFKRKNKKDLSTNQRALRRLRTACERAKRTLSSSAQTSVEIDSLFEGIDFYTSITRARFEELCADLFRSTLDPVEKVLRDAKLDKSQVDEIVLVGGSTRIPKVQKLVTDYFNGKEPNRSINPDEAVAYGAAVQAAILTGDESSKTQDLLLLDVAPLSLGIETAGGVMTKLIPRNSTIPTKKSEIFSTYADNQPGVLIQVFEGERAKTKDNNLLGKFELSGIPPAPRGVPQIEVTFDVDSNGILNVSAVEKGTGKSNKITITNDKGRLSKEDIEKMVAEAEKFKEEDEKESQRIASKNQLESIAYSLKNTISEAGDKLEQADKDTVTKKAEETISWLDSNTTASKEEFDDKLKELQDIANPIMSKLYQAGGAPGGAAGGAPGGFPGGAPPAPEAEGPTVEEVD

[2] = biological target: T1, Ssa1 (wild type, His-tagged); assay: fluorescence polarisation; equilibrium titration: 10 nM F-P5 with Ssa1 in 2-fold steps from 2.4 nM to 5 uM, 1 mM ADP, buffer A (25 mM Hepes-KOH pH 7.5, 100 mM KCl, 11 mM MgOAc), 4% glycerol, 0.005% NP-40, 24 hr at room temperature (23°C); one site saturation fit; details: both partners purified
Ssa1 R444E (His-tagged) [3] = biological target: T2, Ssa1 R444E (His-tagged) (S. cerevisiae, UniProt P10591 1-642, R444E); assay: as above; details: both partners purified
T2 construct: Ssa1, cytosolic Hsp70 of Saccharomyces cerevisiae, with R444E (in SBDbeta); made by QuikChange in the purification plasmid; Same construct as m1 with the point mutation; also called R444E variant
T2 sequence (P10591 whole entry R444E): as the sequence (P10591 whole entry) above, with R444E counted along it

Ssa1 K446E (His-tagged) [4] = biological target: T3, Ssa1 K446E (His-tagged) (S. cerevisiae, UniProt P10591 1-642, K446E); assay: as above; details: both partners purified
T3 construct: Ssa1, cytosolic Hsp70 of Saccharomyces cerevisiae, with K446E (in SBDbeta); made by QuikChange in the purification plasmid; Same construct as m1 with the point mutation; also called K446E variant
T3 sequence (P10591 whole entry K446E): as the sequence (P10591 whole entry) above, with K446E counted along it

Ssa1 R444E (His-tagged) [5] = biological target: T2, Ssa1 R444E (His-tagged); assay: cell-based or functional assay
Ssa1 K446E (His-tagged) [6] = biological target: T3, Ssa1 K446E (His-tagged); assay: cell-based or functional assay
[7] = biological target: T1, Ssa1 (wild type, His-tagged); assay: fluorescence polarisation; dissociation kinetics: 5 uM Ssa1, 10 nM F-P5, 1 mM ADP brought to equilibrium, then unlabeled P5 added to 40 uM; read every 10 s; percent of the signal at t = 0; details: both partners purified

Ydj1 G70N (from UniProt P25491 1-409) (natural protein)
stimulation of single-turnover ATPase activity of the 32P-ATP/Ssa1 complex, compared with WT Ydj1 (% less active than WT) [1]: 20

B1: fluorescein-labeled P5 peptide (peptide)
peptide: Flc-CALLLSAPRR
notes: peptide substrate P5; also called F-P5; source: bought: Sigma Chemical, St. Louis, MO
binding result [2]: binds
binding result (Ssa1 R444E (His-tagged) [3]): binds
binding result (Ssa1 K446E (His-tagged) [4]): binds

B2: peptide P5 (unlabeled) (peptide)
peptide: CALLLSAPRR
notes: peptide substrate P5; also called unlabeled P5; peptide substrate; source: bought: Sigma Chemical, St. Louis, MO
fold stimulation of single-turnover ATPase activity of the 32P-ATP/Ssa1 complex by peptide P5, relative to basal activity (four P5 concentrations; value at 133 uM) (Ssa1 R444E (His-tagged) [5]): 1.7 fold
fold stimulation of single-turnover ATPase activity of the 32P-ATP/Ssa1 complex by peptide P5, relative to basal activity (four P5 concentrations; value at 133 uM) (Ssa1 K446E (His-tagged) [6]): 2.8 fold
binding result [7]: binds
